Measurements: patent US20120288506A1 (Eli Lilly, published 2012)

Legend:
[1] = target: T1, recombinant mouse c-Kit (rm-c-Kit; Gln26-Thr519) (R&D Systems) (mouse, UniProt P05532 26-519); assay: ELISA, plate coated with rm-c-Kit 1 ug/ml
T1 construct: also called mouse c-Kit (1.0 ug/ml)
T1 sequence (looked up): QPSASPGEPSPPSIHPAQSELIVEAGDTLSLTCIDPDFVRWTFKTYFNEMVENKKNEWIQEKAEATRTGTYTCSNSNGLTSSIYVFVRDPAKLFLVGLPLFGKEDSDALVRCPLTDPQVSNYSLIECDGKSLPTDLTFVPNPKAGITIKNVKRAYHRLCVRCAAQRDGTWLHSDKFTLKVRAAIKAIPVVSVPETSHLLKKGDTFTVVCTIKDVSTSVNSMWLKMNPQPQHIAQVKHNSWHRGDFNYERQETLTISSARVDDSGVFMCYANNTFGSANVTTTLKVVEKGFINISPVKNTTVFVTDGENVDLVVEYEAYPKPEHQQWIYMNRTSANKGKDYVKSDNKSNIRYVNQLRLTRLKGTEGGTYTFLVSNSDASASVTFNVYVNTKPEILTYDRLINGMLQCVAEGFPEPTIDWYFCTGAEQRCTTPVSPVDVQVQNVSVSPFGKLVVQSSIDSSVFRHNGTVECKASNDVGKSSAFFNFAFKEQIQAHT
Protocol: (§1) The species binding specificity of anti-human c-Kit mAbs can be determined by measuring the reactivity of the antibodies to human, cynomolgus, and mouse c-Kit proteins in an ELISA. […] Following washes, wells are blocked with 3% PBS/milk. Serial dilutions of human anti-human-c-Kit mAbs are then added to the c-Kit-coated wells and allowed to incubate for two hours at room temperature. Following several washes, a 1:1000 dilution of anti-human IgG-HRP conjugated antibody is added to the plates for one hour at room temperature in order to detect bound human antibody. Plates are washed and HRP substrate is added to each well and incubated until blue color is developed. Stop solution is added and absorbance is measured at 450 nm.

[2] = target: plasma membrane bound human c-Kit expressed by human tumor cells (Mo7e; also Malm-3M) (human, UniProt P10721 26-976); assay: cell-based or functional assay
[3] = target: T2, recombinant human c-Kit (rh-c-Kit) protein (R&D Systems) (human, UniProt P10721 26-520, limits assumed); assay: blocking ELISA: CK6 pre-incubated with rh-c-Kit, added to SCF-coated wells
T2 construct: also called human c-Kit protein; human c-Kit (1.0 ug/ml)
Protocol: Purified mAbs can be also tested for their ability to block the binding of c-Kit and its ligand. […] Following washes, wells are blocked with 3% PBS/milk. […] Following several washes (3-5), a 1:1000 dilution of anti-human IgG-HRP conjugated antibody is added to the plates for one hour at room temperature. Plates are washed in 0.2% Tween-PBS and HRP substrate is added to each well and incubated until blue color is developed. Stop solution is added and absorbance is measured at 450 nm.

[4] = target: T3, plasma membrane bound mouse (p815) c-Kit expressed by mouse tumor cells (p815) (mouse, UniProt P05532 25-979); assay: flow cytometry on whole live P815 cells
T3 construct: whole, on cells; also called c-Kit on P815 cells
Protocol: Species specificity of c-Kit mAbs can be further tested for their binding to plasma membrane bound c-Kit expressed on the surface of human Mo7e and mouse P815 cells based on the flow cytometry analysis (see, e.g., WO2004/007735). Briefly, whole, live human Mo7e and mouse P815 cells are serum starved overnight, washed 3 times in cold blocking buffer (5% FBS in PBS), and then resuspended in 100 μl of blocking buffer. An anti-c-Kit antibody is added at 1.0 μg/ml and the mixture is incubated for 30 minutes at 4° C. A secondary fluorescence-conjugated antibody (Jackson ImmunoResearch) is added at 1.0 μg/ml to detect human antibody bound to the cell surface via flow cytometry analysis.

[5] = target: T4, cynomolgus c-Kit (cyno-c-Kit; Met1-His549 prepared recombinantly) (cynomolgus); assay: ELISA, plate coated with cyno-c-Kit 1 ug/ml
T4 construct: The printed range starts at Met1, so it includes the signal peptide of the expressed construct; also called cynomologus c-Kit; cynomolgus c-Kit (1.0 ug/ml)
Protocol: as §1

[6] = target: T2, recombinant human c-Kit (rh-c-Kit) …; assay: ELISA, plate coated with rh-c-Kit 1 ug/ml, anti-human IgG-HRP detection
Protocol: Following washes, wells are blocked with 3% PBS/milk. […] Plates are washed and HRP substrate is added to each well and incubated until blue color is developed. Stop solution is added and absorbance is measured at 450 nm.

[7] = target: T2, recombinant human c-Kit (rh-c-Kit) …; assay: SPR (BIAcore), rh-c-kit immobilized on CM5 chip, 25 C

T2 sequence (P10721 26-520 limits assumed): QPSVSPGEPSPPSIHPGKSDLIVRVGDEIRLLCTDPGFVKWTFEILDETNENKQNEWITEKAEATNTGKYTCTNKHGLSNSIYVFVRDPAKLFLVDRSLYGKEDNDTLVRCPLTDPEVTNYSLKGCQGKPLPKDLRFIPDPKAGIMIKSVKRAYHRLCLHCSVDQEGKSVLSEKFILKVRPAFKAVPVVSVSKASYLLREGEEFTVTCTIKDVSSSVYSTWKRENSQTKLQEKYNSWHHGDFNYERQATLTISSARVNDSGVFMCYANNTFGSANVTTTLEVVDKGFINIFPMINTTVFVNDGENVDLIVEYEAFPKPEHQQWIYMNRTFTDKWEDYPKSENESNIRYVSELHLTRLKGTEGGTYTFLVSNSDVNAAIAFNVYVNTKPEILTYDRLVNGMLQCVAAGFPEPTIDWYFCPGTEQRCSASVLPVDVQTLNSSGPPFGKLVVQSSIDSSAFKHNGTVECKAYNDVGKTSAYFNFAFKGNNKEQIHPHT
plasma membrane bound human c-Kit expressed by human tumor cells (Mo7e; also Malm-3M), sequence (P10721 26-976): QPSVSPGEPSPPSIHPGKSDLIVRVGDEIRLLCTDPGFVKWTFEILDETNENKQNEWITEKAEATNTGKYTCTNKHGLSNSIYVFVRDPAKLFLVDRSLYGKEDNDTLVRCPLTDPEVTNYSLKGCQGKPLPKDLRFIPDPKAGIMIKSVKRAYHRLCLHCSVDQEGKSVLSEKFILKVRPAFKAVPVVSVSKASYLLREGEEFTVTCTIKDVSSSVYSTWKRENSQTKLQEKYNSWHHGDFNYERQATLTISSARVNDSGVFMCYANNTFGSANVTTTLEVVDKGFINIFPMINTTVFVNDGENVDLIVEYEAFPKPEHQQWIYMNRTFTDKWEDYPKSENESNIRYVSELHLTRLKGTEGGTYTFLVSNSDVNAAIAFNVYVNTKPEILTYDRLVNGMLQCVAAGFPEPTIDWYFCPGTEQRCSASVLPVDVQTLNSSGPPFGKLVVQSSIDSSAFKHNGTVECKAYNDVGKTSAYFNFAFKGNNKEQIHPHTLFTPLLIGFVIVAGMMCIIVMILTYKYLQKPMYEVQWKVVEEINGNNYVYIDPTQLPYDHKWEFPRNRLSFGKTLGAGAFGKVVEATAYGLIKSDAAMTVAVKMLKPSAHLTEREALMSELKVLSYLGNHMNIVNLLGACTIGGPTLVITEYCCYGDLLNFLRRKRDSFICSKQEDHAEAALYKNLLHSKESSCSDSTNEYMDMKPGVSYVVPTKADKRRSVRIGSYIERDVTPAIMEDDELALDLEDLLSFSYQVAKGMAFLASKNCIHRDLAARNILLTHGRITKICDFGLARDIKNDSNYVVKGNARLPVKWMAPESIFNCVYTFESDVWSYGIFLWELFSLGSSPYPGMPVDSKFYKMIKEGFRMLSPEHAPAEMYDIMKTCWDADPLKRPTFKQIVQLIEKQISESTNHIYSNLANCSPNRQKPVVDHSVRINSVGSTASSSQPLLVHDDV
T3 sequence (P05532 25-979): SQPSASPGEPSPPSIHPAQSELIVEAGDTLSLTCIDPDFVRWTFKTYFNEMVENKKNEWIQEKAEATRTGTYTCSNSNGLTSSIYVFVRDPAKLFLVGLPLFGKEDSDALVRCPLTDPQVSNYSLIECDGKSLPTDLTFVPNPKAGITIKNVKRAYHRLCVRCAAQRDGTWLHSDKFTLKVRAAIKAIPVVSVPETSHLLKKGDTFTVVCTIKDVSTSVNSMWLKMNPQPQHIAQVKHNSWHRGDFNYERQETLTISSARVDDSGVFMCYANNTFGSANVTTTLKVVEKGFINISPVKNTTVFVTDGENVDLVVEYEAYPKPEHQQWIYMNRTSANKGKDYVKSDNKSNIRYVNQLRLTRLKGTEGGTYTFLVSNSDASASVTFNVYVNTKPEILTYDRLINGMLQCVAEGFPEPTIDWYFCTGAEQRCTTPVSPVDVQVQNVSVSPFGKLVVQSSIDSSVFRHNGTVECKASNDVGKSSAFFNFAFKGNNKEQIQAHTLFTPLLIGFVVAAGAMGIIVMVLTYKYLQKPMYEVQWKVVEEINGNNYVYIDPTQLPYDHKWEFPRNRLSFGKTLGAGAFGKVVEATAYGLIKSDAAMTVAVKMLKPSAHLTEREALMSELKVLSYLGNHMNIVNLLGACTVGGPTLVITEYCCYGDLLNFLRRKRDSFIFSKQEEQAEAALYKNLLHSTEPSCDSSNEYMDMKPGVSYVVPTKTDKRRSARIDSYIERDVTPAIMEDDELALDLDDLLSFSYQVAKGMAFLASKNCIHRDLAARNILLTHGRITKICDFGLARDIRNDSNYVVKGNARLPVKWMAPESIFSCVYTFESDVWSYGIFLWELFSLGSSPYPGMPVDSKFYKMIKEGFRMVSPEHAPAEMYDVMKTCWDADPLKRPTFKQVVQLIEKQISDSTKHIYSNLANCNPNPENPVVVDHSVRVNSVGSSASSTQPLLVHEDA

binding result [1]: no binding
IC50 of inhibition of c-Kit and MAPK phosphorylation in response to SCF in Mo7e ('Mole') leukemia cells, western blot [2]: 300 pM
IC50 [3]: ~40 pM
binding result [4]: no binding (tested: 1.0 µg/ml)
EC50 [5]: 57 pM
EC50 [6]: ~30 pM
Kd [7]: 66 pM
B1: anti-human c-Kit monoclonal antibody CK6 (antibody, human IgG1, kappa, V domains shown)
VH: QVQLVQSGAAVKKPGESLKISCKGSGYRFTSYWIGWVRQMPGKGLEWMGIIYPGDSDTRYSPSFQGQVTISAGKSISTAYLQWSSLKASDTAMYYCARHGRGYNGYEGAFDIWGQGTMVTVSS
VL: AIQLTQSPSSLSASVGDRVTITCRASQGISSALAWYQQKPGKAPKLLIYDASSLESGVPSRFSGSGSGTDFTLTISSLQPEDFATYYCQQFNSYPLTFGGGTKVEIKR
notes: also called mAb CK6; anti-c-Kit mAb CK6
